The values below come from patent US20250346639A1, “BACTERIOCIN POLYPEPTIDES, NUCLEIC ACIDS ENCODING SAME, AND METHODS OF USE THEREOF” (Syngulon SA, priority 2022, published 2025).

One assay relates to P. pentosaceus HELA. The assay can be described thus: Antimicrobial activity (halo of inhibition on petri dishes) of cell-free produced, intein-circularized bacteriocins against indicator P. pentosaceus HELA. It is filed as cell-based. More on the design: key: +: Bacteriocins showing a halo of inhibition against at least one of the indicators were considered as positive. The note with it: bacteriocins circularized with inteins; cell free production. Here is the method:
(§1) Recombinant vectors were stabilized and amplified in E. coli DH5a standard strain and used as templates for cell-free protein synthesis using PURExpress® in vitro Protein Synthesis Kit (New England Biolabs). All bacteriocins synthesized were tested on petri dishes for antimicrobial activity against an indicator strain. Bacteriocins showing a halo of inhibition against at least one of the indicators were considered as positive.
(§2) Following the same scheme as for GarML, different plasmids containing genes coding for recombinant proteins containing Npu IC and IN fused to the mature amino acid sequence of different known and hypothetical circular bacteriocins were synthesized. The circularization point for all of them was changed with respect to the native peptides so they all would start with a Ser in position 1 (Table 2.1). The Ssra tag was also added to the C-terminus. […] Plasmids synthesized were used as templates for cell free protein production. Antimicrobial activity of the peptides obtained after cell free production and overnight incubation at room temperature were tested against indicator L. lactis IL1403.

The next assay relates to L. lactis IL1403. The assay is described as follows: Antimicrobial activity (halo of inhibition on petri dishes) of cell-free produced, intein-circularized bacteriocins against indicator L. lactis IL1403. It is filed as cell-based, Lactococcus lactis. More on the design: key: +: Bacteriocins showing a halo of inhibition against at least one of the indicators were considered as positive. The note with it: bacteriocins circularized with inteins; cell free production and overnight incubation at room temperature. Here is the method:
as §1, §2

Another assay has as its system L. inocua. The assay can be described thus: Antimicrobial activity (halo of inhibition on petri dishes) of cell-free produced, intein-circularized bacteriocins against indicator L. inocua. It counts as cell-based. Details: key: +: Bacteriocins showing a halo of inhibition against at least one of the indicators were considered as positive. The note with it: bacteriocins circularized with inteins; cell free production. Here is the method:
as §1, §2

For another assay, the system named is L. lactis. The assay is described as follows: Controlling growth of contaminating L. lactis in a culture medium with a circular bacteriocin (Examples 5 and 6). It is filed as cell-based. The text has this: A polypeptide containing an amino acid sequence of a circular bacteriocin, for example Enterocin AS-48, flanked by a split intein is produced. The split intein is a conditionally active, pH-sensitive split intein, and is configured to circularize the bacteriocin when the pH is below 6.0. The polypeptide is introduced into a culture medium growing a microbial organism of interest, at pH 7.0. […] When a contaminating microbial species, L. lactis, is detected in the culture medium, the pH of the medium is reduced to below 6.0, which activates the split intein and causes the bacteriocin to circularize. Subsequently, the growth of the contaminating L. lactis in the culture medium is inhibited.
A microbial cell is genetically engineered with an expression vector encoding a circular bacteriocin, for example Leucocyclicin Q, flanked by a split intein. The genetically engineered microbial cell is introduced into a culture medium growing a microbial organism of interest. The microbial cell produces the bacteriocin in circularized form, and secretes it into the culture medium. Growth of a contaminating microbial species, L. lactis, is inhibited by the circular bacteriocin.

On to “Gassericin A (SGASLGTAFAAILGVTLPAWALAAAGALGATAAIYWIADQFGIHLATGTARKLLDAMA; circularized via Npu split intein; Strain LA39; Gassericin A (GasA); listed as Lactobacillus gasseri) [circular bacteriocin of Lactobacillus gasseri LA39]”, for which, in the assay with P. pentosaceus HELA, the “Antimicrobial activity, Indicator P. pentosaceus HELA” value is reported as “+”. The “Antimicrobial activity, Indicator L. lactis IL1403” value in the assay on L. lactis IL1403 was “+”. In addition, in the assay on L. inocua, the “Antimicrobial activity, Indicator L. inocua” value is reported as “+”. Consider “Paracyclicin P (SAGGSLAGAFSVVAGVTLPAWIVPIATAFGAVSAIYFIANKLGIHLAPGWYQDMVNYV; circularized via Npu split intein; Paracyclicin P (ParP); subsp. Paracasei JCM 8130/ DSM 5622; listed as Lactobacillus paracesei) [circular bacteriocin of Lactobacillus paracasei JCM 8130/DSM 5622]”, for which, in the assay with L. lactis IL1403, the “Antimicrobial activity, Indicator L. lactis IL1403” value was “+”. Same read-out and setting: to “Carnocyclin A (SLINAGLTVGSIISILGGVTVGLSGVFTAVKAAIAKQGIKKAIQLLVAYGIAQGTAEKVV; circularized via Npu split intein; Carnocyclin A; Strain UAL307; listed as Carnobacterium maltaromaticum) [circular bacteriocin of Carnobacterium maltaromaticum UAL307]” belongs “+”.

Take “Plantaricyclin A (SLTQKALDLLSAGSSLGTVAAAVLGVTLPAWAVAAAGALGGTAAIVWIAKQFGVHLTT; circularized via Npu split intein; Plantaricyclin A (PlcA); Strain NI326; listed as Lactobacillus plantarum) [circular bacteriocin of Lactobacillus plantarum NI326]”: the “Antimicrobial activity, Indicator L. lactis IL1403” value with L. lactis IL1403 is listed as “+”. Same read-out and setting: to “Garvicin ML (SGAFTAAGGIMALIKKYAQKKLWKQLIAALVATGMAAGVAKTIVNAVSAGMDIATALSLF; circularized via Npu split intein; Garvicin ML (GarML); Strain DCC43; listed as Lactococcus garvieae) [circular bacteriocin of Lactococcus garvieae DCC43]” belongs “+”.

Consider “Bacteriocin NCTC 12958: putative circular bacteriocin of Streptococcus thermophilus NCTC 12958; SEQ ID NO: 854 circularized with Npu split intein (SAGGSIVDAFAIIAGITLPAWVAPVLAGFGVVSAIYWICGKFGIRLAPGWYQDIVDFV; circularized via Npu split intein; Bacteriocin NCTC 12958; Strain NCTC 12958; listed as Streptococcus thermophilus)”, for which the “Antimicrobial activity, Indicator L. lactis IL1403” value in the assay on L. lactis IL1403 is “+”.

B1: Bacteriocin BCW 2997: putative circular bacteriocin of Listeria monocytogenes BCW 2997; SEQ ID NO: 818 circularized with Npu split intein (protein)
chain: SIKVYLKKQIKKKGRKAVIAWLAKEFGIPGGVAATVLNIVEAGGWATTILSILTAVGSGGLSLIAAAGKE
modifications: circularized via Npu split intein; Strain BCW 2997; Bacteriocin BCW 2997; Listeria monocytogenes
In the case of B1, the “Antimicrobial activity, Indicator L. lactis IL1403” value with L. lactis IL1403 is “+”.

B2: Uberolysin A (protein, listed as Streptococcus uberis)
chain: SGTAKKVVDAIDKGAAAFVIISIISTVISAGALGAVSASADFIILTVKNYISRNLKAQAVIWLAGYTGIA
modifications: circularized via Npu split intein; Uberolysin A (UberA); Strain 42
notes: circular bacteriocin of Streptococcus uberis 42
Regarding B2, the “Antimicrobial activity, Indicator L. inocua” value with L. inocua was “+”.

B3: Amylocyclicin (protein, listed as Bacillus amyloliquefaciens)
chain: STAAAKKAIDIIDAASTIASIISLIGIVTGAGAISYAIVATAKTMIKKYGKKYAAAWLASTLGI
modifications: circularized via Npu split intein; Strain FZB42; Amylocyclicin (Alc)
notes: circular bacteriocin of Bacillus amyloliquefaciens FZB42
Turning to B3, in the assay on L. lactis IL1403, the “Antimicrobial activity, Indicator L. lactis IL1403” value is listed as “+”.

B4: Bacteriocin YS111: putative circular bacteriocin of Streptococcus suis YS111; SEQ ID NO: 828 circularized with Npu split intein (protein, listed as Streptococcus suis)
chain: STVVNVILGAGTAVTILGIISSIASGGATTLLTVGWAGFKATVQRLAKQSMARAIAYVAAALGVPSAVA
modifications: circularized via Npu split intein; Strain YS111; Bacteriocin YS111
On to B4, for which the “Antimicrobial activity, Indicator L. lactis IL1403” value in the assay on L. lactis IL1403 is reported as “+”.

B5: Enterocin NKR-5-3B (protein, listed as Enterococcus faecium)
chain: SSYAAKKVIDIINTGSAVATIIALVTAVVGGGLITAGIVATAKSLIKKYGAKYAAAWLTANLGI
modifications: circularized via Npu split intein; Strain NKR-5-3; Enterocin NKR-5-3B
notes: circular bacteriocin of Enterococcus faecium NKR-5-3
For the molecule B5, in the assay with L. lactis IL1403, the “Antimicrobial activity, Indicator L. lactis IL1403” value is recorded as “+”. The “Antimicrobial activity, Indicator L. inocua” value in the assay on L. inocua is recorded as “+”.

B6: Bacteriocin 3688STDY6124959: putative circular bacteriocin of Staphylococcus aureus 3688STDY6124959; SEQ ID NO: 814 circularized with Npu split intein (protein, listed as Staphylococcus aureus)
chain: STLGISSYAAKKAIDIIAAAGDVAAIVGLIGAVTGAGAIGAGILFTAKKLIKSYGKKYAAAWLT
modifications: circularized via Npu split intein; Bacteriocin 3688STDY6124959; Strain 3688STDY6124959
As for B6, the “Antimicrobial activity, Indicator L. lactis IL1403” value in the assay on L. lactis IL1403 is “+”.

B7: Leucocyclicin Q (protein)
chain: SKSLANTILGAIAVGNLASWLLALVPGPGWATKAALATAETIVKHEGKAAAIAWLVNQLGI
modifications: circularized via Npu split intein; Strain TK41401; Leucocyclicin Q; Leuconostoc mesenteroides
notes: circular bacteriocin of Leuconostoc mesenteroides TK41401
Turning to B7, the “growth of contaminating L. lactis in culture medium” value in the assay with L. lactis (Example 6, bacteriocin secreted by genetically engineered microbial cell) is reported as “inhibited”. Also, the “Antimicrobial activity, Indicator L. lactis IL1403” value in the assay on L. lactis IL1403 is “+”.

B8: DSM 15102: putative circular bacteriocin of Garciella nitratireducens DSM 15102; SEQ ID NO: 832 circularized with Npu split intein (protein, listed as Garciella nitratireducens)
chain: SMLGISTVAAKKVIDIIDTASTVATIISLIGVIVGVGGITAGLVTTAKAMIKKYGKKYATMWLA
modifications: circularized via Npu split intein; Bacteriocin DSM 15102; Strain DSM 15102
B8: in the assay on L. lactis IL1403, the “Antimicrobial activity, Indicator L. lactis IL1403” value is recorded as “+”.

B9: Enterocin AS-48 (protein, listed as Enterococcus faecalis)
chain: SIKAYLKKEIKKKGKRAVIAWMAKEFGIPAAVAGTVLNVVEAGGWVTTIVSILTAVGSGGLSLLAAAGRE
modifications: circularized via Npu split intein; Enterocin AS-48 (EntAS48); Strain 48
notes: circular bacteriocin of Enterococcus faecalis S-48
For B9, in the assay on L. lactis (Example 5, pH-sensitive split intein, pH 7.0), the “antimicrobial activity of non-circularized bacteriocin in culture medium” value is “does not exhibit antimicrobial activity”. Besides, the “growth of contaminating L. lactis in culture medium” value in the assay on L. lactis (Example 5, pH-sensitive split intein, pH reduced to below 6.0) was “inhibited”. Moreover, in the assay on L. lactis IL1403, the “Antimicrobial activity, Indicator L. lactis IL1403” value is “+”.

B10: Circularin A (protein, listed as Clostridium beijerinckii)
chain: SIASGGAGTLMTIGWATFKATVQKLAKQSMARAIAYVAGALGVQTAAATTIVNVILNAGTLVTVLGIIA
modifications: circularized via Npu split intein; Circularin A (CirA); ATCC 25752
notes: circular bacteriocin of Clostridium beijerinckii ATCC 25752
Take B10: the “Antimicrobial activity, Indicator L. lactis IL1403” value in the assay on L. lactis IL1403 was “+”.
